Results from paper doi:10.1101/187336.

Molecular target: fHbp^V1.1:PorA^267/P1.16 (Neisseria meningitidis (MC58 genomic DNA) | Neisseria meningitidis) (UniProt Q9JXV4)
Test: SPR

In the case of “human complement FH domains 6 and 7 (from UniProt P08603 321-443) (domain or fragment)”, the fold reduction of CFH binding is reported as 8 fold.
